Assay [1] deals with T1, human TIGIT-his protein (human, UniProt Q495A1 22-141).
T1 construct: not shown: his tag
T1 sequence: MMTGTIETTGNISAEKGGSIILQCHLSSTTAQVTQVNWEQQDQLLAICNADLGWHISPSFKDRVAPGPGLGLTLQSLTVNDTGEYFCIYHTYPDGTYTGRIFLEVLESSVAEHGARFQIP
Briefly: BLI (ForteBio), antibody on AHQ sensor, 100 nM antigen, monovalent, 1:1 model. As for the experimental part: (§1) The antibody-loaded sensor was incubated in 100 nM target antigen to the plateau phase, and then the sensor was transferred to an analysis buffer and incubated for at least 2 minutes for measuring dissociation rate. The kinetic analysis was performed using a 1:1 binding model.
(In BLI a coated tip is dipped into the sample, and binding shifts an interference pattern.)

The target in assay [2] is T2, cynomolgus monkey TIGIT-his protein (cynomolgus monkey).
T2 construct: also called Cynomolgus TIGIT-his; not shown: his tag
The assay is described as above. As for the experimental part:
as §1

Assay [3] addresses T3, mouse TIGIT overexpressed on CHO cells (mouse, UniProt P86176 29-249).
T3 construct: whole, on cells; also called CHO-muTIGIT cells
T3 sequence (looked up): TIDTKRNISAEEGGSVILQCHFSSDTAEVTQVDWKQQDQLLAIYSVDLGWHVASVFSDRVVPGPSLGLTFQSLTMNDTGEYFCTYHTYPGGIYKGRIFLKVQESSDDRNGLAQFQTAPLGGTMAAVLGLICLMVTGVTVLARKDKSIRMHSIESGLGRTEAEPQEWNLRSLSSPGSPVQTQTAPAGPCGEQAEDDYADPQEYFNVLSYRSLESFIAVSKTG
Briefly: flow cytometry, competition with mouse CD155-mouse IgG2a Fc (2 ug/mL) on CHO-muTIGIT cells. As for the experimental part:
(§2) The CHO-muTIGIT cells were expanded and adjusted to a cell density of 2×10⁶ cells/mL, added to a 96-well flow plate at 100 μL/well, and centrifuged for later use. The purified antibody was diluted 3-fold with PBS starting at 400 nM for a total of 12 concentration gradients. The diluted sample was added at 60 μL/well to the cells-carrying 96-well flow plate, and incubated at 4° C. for 30 minutes. […] APC-conjugated goat anti-mouse IgG antibody diluted 100-fold with PBS was added at 100 μL/well, incubated at 4° C. for 30 minutes, and washed twice with PBS. Cells were resuspended with PBS at 100 μL/well, and detected on a CytoFlex flow cytometer, and the corresponding MFI was calculated. Graphpad software was used for graphing analysis to obtain IC₅₀ values.

In assay [4] the target is T4, cynomolgus TIGIT overexpressed on CHO cells (cynomolgus, UniProt A0A7N9I9V4 89-312).
T4 construct: whole, on cells; also called CHO-cynoTIGIT cells
Kind of assay: flow cytometry, CHO-cynoTIGIT cells. The text has this: (§3) Specifically, CHO cells overexpressing human TIGIT (CHO-huTIGITcells), CHO cells overexpressing cynomolgus TIGIT (CHO-cynoTIGIT cells) and CHO cells overexpressing mouse TIGIT (CHO-muTIGIT cells) were generated by transfection of the pCHO1.0 vector (purchased from Invitrogen) with cDNA encoding human TIGIT, cynomolgus TIGIT and mouse TIGIT cloned into the multiple cloning site (MCS), respectively, followed by pressure screening. The overexpressing cells were expanded and adjusted to an appropriate cell density, and added to a 96-well flow cytometry plate. After centrifugation, the cells were added with a gradiently diluted sample to be tested, and incubated at 4° C. for 30 minutes. The cells were washed twice with PBS, and added with a fluorescent secondary antibody correspondingly diluted to an appropriate concentration, then incubated at 4° C. for 30 minutes, and washed twice with PBS. Cells were resuspended with PBS, and detected on a CytoFlex flow cytometer, and the corresponding MFI was calculated. Graphpad software was used for graphical analysis to obtain EC₅₀ values.

Assay [5] has as its target T3, mouse TIGIT overexpressed on CHO cells. Briefly: flow cytometry, CHO-muTIGIT cells.
Text: as §3
In general terms: Flow cytometry measures light scatter and fluorescence of single cells or particles in a stream.

Assay [6] has as its target T5, human TIGIT expressed on cells (human, UniProt Q495A1 22-244).
T5 construct: whole, on cells; cDNA encoding human TIGIT in pCHO1.0 for CHO cells; also called CHO-huTIGIT cells
T5 sequence (looked up): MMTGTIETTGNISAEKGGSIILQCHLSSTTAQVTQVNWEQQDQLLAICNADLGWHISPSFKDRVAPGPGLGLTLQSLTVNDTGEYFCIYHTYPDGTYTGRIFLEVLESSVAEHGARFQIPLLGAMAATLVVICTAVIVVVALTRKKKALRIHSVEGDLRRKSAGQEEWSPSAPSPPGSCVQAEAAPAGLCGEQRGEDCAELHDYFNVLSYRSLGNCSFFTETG
Kind of assay: flow cytometry, CHO-huTIGIT cells.
Text: as §3

Assay [7] has as its target T5, human TIGIT expressed on cells. Kind of assay: flow cytometry, competition with human CD155-mouse IgG2a Fc (2 ug/mL) on CHO-huTIGIT cells. Here is the method: as §2, with “Specifically, the CHO-huTIGIT” for “The CHO-muTIGIT”, “calculated.” for “calculated. Graphpad software was used for graphing analysis to obtain IC₅₀ values.”
In assay [8] the target is T4, cynomolgus TIGIT overexpressed on CHO …. Briefly: flow cytometry, CHO-cynoTIGIT cells.
Text: as §3, with “(CHO-huTIGIT cells),” for “(CHO-huTIGITcells),”
This is another data set of the same source.

Assay [9] deals with T5, human TIGIT expressed on cells. Briefly: flow cytometry, CHO-huTIGIT cells.
Text: as §3, with “(CHO-huTIGIT cells),” for “(CHO-huTIGITcells),”
The source holds these as a separate data set.

Assay [10] addresses T3, mouse TIGIT overexpressed on CHO cells. Kind of assay: flow cytometry, CHO-muTIGIT cells.
Text: as §3, with “(CHO-huTIGIT cells),” for “(CHO-huTIGITcells),”
The source holds these as a separate data set.

Assay [11] deals with T5, human TIGIT expressed on cells. Kind of assay: flow cytometry blocking assay: binding of human CD155 protein with mouse IgG2a Fc tag to CHO cells overexpressing human TIGIT, median fluorescence intensity APC-A; unit from the concentration axis. As for the experimental part:
as §2, with “Specifically, the CHO-huTIGIT” for “The CHO-muTIGIT”, “monoclonal antibodies were” for “antibody was”, “calculated.” for “calculated. Graphpad software was used for graphing analysis to obtain IC₅₀ values.”

The target of another assay is T6, mouse TIGIT-his protein (mouse, UniProt P86176 29-148).
T6 construct: not shown: his tag
T6 sequence: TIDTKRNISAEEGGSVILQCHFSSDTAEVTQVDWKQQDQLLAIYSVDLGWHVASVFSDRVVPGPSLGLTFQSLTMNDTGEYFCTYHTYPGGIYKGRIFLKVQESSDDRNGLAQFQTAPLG
Briefly: BLI (ForteBio), IgG on AHQ sensor, monovalent. Here is the method:
(§4) The antibody-loaded sensor was incubated in 100 nM TIGIT-his antigen to the plateau phase, and then the sensor was transferred to an analysis buffer and incubated for at least 2 minutes for measuring dissociation rate. The kinetic analysis was performed using a 1:1 binding model.

In assay [12] the target is T5, human TIGIT expressed on cells. Briefly: flow cytometry, competition with human CD155-mouse IgG2a Fc (2 ug/mL) on CHO-huTIGIT cells. As for the experimental part: as §2, with “Specifically, the CHO-huTIGIT” for “The CHO-muTIGIT”, “monoclonal antibodies were” for “antibody was”, “calculated.” for “calculated. Graphpad software was used for graphing analysis to obtain IC₅₀ values.”
The source holds these as a separate data set.

The target is the same in assay [13]. Kind of assay: flow cytometry on CHO cells overexpressing human TIGIT, median fluorescence intensity PE-A; unit from the concentration axis.
Text: as §3, with “(CHO-huTIGIT cells),” for “(CHO-huTIGITcells),”

The target is the same in assay [14]. Kind of assay: flow cytometry on activated human primary T cells (TIGIT), readout positive cell (%); unit from the concentration axis. An excerpt: The binding activity of the anti-TIGIT antibody of the present invention to TIGIT on the surface of activated T cells was detected based on the flow cytometry detection method.
Specifically, human PBMC were sorted according to the experimental protocol provided by […] Company (stemcell, Cat. No.: #17951C) to obtain human total T cells. […] The activated T cells were adjusted to an appropriate cell density and added to a 96-well flow cytometry plate. After centrifugation, the gradiently diluted sample to be tested was added, and incubated at 4° C. for 30 minutes. Washing was carried out twice with PBS, and a fluorescent secondary antibody diluted to an appropriate concentration was added, incubated at 4° C. for 30 minutes, and washed twice with PBS. […]

Assay [15] addresses T1, human TIGIT-his protein. Briefly: BLI (ForteBio), IgG on AHQ sensor, 100 nM TIGIT-his, monovalent, 1:1 model. As for the experimental part: (§5) Biofilm layer optical interference technology (ForteBio) was used to determine the binding and dissociation […] values of the anti-TIGIT monoclonal antibodies obtained in Example 1 to human, cynomolgus monkey and mouse TIGIT. Fortebio affinity measurements were performed according to existing methods (Este, P et al., High throughput solution-based measurement of antibody-antigen affinity and epitope binning. Mabs, 2013.5(2): p 270-8).
as §4

The target of assay [16] is T2, cynomolgus monkey TIGIT-his protein. The description is as above. As for the experimental part: as §5, §4
In assay [17] the target is T4, cynomolgus TIGIT overexpressed on CHO …. Briefly: flow cytometry on CHO cells overexpressing cynomolgus TIGIT, median fluorescence intensity PE-A; unit from the concentration axis.
Text: as §3, with “(CHO-huTIGIT cells),” for “(CHO-huTIGITcells),”

Where two headings read alike, the source gives them in different places.

T2 sequence (chain, as listed by the source): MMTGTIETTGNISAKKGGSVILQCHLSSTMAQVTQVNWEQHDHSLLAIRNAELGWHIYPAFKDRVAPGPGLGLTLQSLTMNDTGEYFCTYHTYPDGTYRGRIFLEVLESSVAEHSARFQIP
T4 sequence (A0A7N9I9V4 entry or part of it): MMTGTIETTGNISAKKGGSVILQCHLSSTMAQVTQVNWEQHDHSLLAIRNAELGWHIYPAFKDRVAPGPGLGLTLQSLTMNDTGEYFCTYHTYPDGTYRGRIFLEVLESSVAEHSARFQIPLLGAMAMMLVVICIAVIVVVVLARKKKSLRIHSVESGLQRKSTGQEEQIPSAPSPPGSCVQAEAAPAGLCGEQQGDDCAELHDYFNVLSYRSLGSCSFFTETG

B1: anti-TIGIT monoclonal antibody ADI-55796 (antibody, V domains shown)
VH: QLQLQESGPGLVKPAETLSLTCTVSGGSISSYDHYWTWIRQPPGKGLEWIGTVYYSGSTFHNPSLKSRVTIPVDTSKNQFSLKLSSVTAADTAVYYCARVGPDVSHPPFDYWGQGTLVTVSS
VL: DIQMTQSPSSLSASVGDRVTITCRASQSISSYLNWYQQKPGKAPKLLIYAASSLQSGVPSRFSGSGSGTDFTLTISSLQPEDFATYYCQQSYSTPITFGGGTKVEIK
As usually defined, the Kd is the equilibrium constant for the complex coming apart. The term IC50 denotes the midpoint of a concentration-inhibition curve. For orientation: EC50 means the concentration at which the effect is half-maximal. For the molecule B1, the figures for the Kd (in the assay with human TIGIT-his protein [1]; in assay [2]) were 0.322 nM and 3.12 nM, respectively. Also, the IC50 in assay [3] is 0.889 nM; in assay [7], 0.425 nM. Moreover, the EC50 was determined as 1 nM in assay [4], 2.52 nM in [5] and 1.43 nM in assay [6].

B2: anti-TIGIT monoclonal antibody 55812-G1 (antibody, human IgG1, V domains shown)
VH: QVQLVQSGAEVKKPGASVKVSCKASGYAFTGYYMHWVRQAPGQGLEWMGSIIPFSGEANYAQKFQGRVTMTRDTSISTAYMELSRLRSDDTAVYYCARGPGSLDRLWYYYYGMDVWGQGTTVTVSS
VL: not shown
notes: Wild-type human IgG1 heavy chain constant region, human kappa light chain constant region; HEK293
Consider B2, for which the EC50 was 1.13 nM in [8]; 0.66 nM in assay [9]; 0.658 nM in assay [13]; 0.0517 nM in assay [14]; 1.12 nM in [17]. The binding result in [10] was “no binding”; with mouse TIGIT-his protein it was “no binding (tested: 100 nM)”. For the same molecule, the IC50 in [11] amounted to 0.356 nM; in [12], 0.36 nM. Further, the Kd with human TIGIT-his protein [15] stood at 3.5 nM; in assay [16], 24.1 nM.

B3: anti-TIGIT monoclonal antibody ADI-55812 (antibody, V domains shown)
VH: QVQLVQSGAEVKKPGASVKVSCKASGYAFTGYYMHWVRQAPGQGLEWMGSIIPFSGEANYAQKFQGRVTMTRDTSISTAYMELSRLRSDDTAVYYCARGPGSLDRLWYYYYGMDVWGQGTTVTVSS
VL: not shown
On to B3, for which the values for the Kd (with human TIGIT-his protein [1]; in [2]) were 1.9 nM and 34 nM, respectively. Also, the EC50 in [4] stood at 1.5 nM; in assay [6] it was 0.964 nM. Besides, the binding result in [5] is given as “no binding”. Besides, the concentration for half-maximal inhibition (IC50) in assay [7] was 0.296 nM.

B4: anti-TIGIT monoclonal antibody 55812-G1LALA (antibody, human IgG1, V domains shown)
VH: QVQLVQSGAEVKKPGASVKVSCKASGYAFTGYYMHWVRQAPGQGLEWMGSIIPFSGEANYAQKFQGRVTMTRDTSISTAYMELSRLRSDDTAVYYCARGPGSLDRLWYYYYGMDVWGQGTTVTVSS
VL: not shown
notes: Human IgG1 heavy chain constant region modified by L234A, L235A; human kappa light chain constant region; HEK293
With B4, the EC50 is 1.28 nM in assay [8]; 0.7 nM in assay [9]; 0.698 nM in [13]; 0.057 nM in assay [14]; 1.28 nM in assay [17]. In addition, the binding result in assay [10] is listed as “no binding”; with mouse TIGIT-his protein, “no binding (tested: 100 nM)”. The values for the 50% inhibitory concentration (IC50) in [11] and in assay [12] were 0.319 nM and 0.32 nM, respectively. Besides, the figures for the Kd (with human TIGIT-his protein [15]; in [16]) were 3.4 nM and 22.1 nM, respectively.

The values above are taken from patent publication US20250223354A1 (BIOTHEUS, published 2025).
